What was measured:
mAb CIS43 [1] = experiment: SPR; Carterra LSA; mAb amine-coupled to a CMD200M chip, peptide titrated in 2-fold steps up to 8 ug/mL without regeneration; 25 C; HBSTE (10 mM HEPES pH 7.4, 150 mM NaCl, 3 mM EDTA, 0.01% Tween 20); 1:1 Langmuir model; mean of triplicates; KD includes avidity for antigens with several repeats
mAb 317 [2] = experiment: as above
mAb CIS43 [3] = experiment: SPR
mAb 317 [4] = experiment: SPR

Sequence of mAb 317 (heavy, as listed by the source, chain 1 of 2): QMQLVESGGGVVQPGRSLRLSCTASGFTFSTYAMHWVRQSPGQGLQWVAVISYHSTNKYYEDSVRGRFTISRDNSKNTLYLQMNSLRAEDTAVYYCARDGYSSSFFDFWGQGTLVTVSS
Sequence of mAb 317 (light, as listed by the source, chain 2 of 2): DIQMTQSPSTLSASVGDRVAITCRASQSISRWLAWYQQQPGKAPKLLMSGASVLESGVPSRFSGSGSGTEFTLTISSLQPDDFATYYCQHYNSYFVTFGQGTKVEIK
Sequence of mAb CIS43 (heavy, as listed by the source, chain 1 of 2): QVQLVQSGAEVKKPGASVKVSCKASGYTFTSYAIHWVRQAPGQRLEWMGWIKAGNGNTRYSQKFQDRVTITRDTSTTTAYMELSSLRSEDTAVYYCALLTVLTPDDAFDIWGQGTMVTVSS
Sequence of mAb CIS43 (light, as listed by the source, chain 2 of 2): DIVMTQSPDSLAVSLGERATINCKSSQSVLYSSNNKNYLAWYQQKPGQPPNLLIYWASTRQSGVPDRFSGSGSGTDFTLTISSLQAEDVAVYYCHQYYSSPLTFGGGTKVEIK

Kd (mAb CIS43 [3]) [nM]	Kd (mAb 317 [4]) [nM]	koff (mAb 317 [4]) [s⁻¹]	kon (mAb 317 [4]) [M⁻¹ s⁻¹]	Substance	Kd (mAb CIS43 [1]) [µM]	koff (mAb CIS43 [1]) [s⁻¹]	kon (mAb CIS43 [1]) [M⁻¹ s⁻¹]	Kd (mAb 317 [2]) [nM]	koff (mAb 317 [2]) [s⁻¹]	kon (mAb 317 [2]) [M⁻¹ s⁻¹]
–	–	–	–	NPDP peptide	0.0191	0.00216	113000	4560	0.0454	10000
1720	16.6	0.0206	1.24e+06	NANP3 peptide	–	–	–	–	–	–
–	–	–	–	NPNA3 peptide	9.43	0.0706	7940	7.03	0.00138	197000
